Data set [1] has as its system Crp (Escherichia coli K-12 W3110). The data set is described as follows: EMSA. As to conditions: 20 uM cAMP; apparent Kd; Crp EMSA: 10 mM Tris-HCl pH 8.0, 50 mM KCl, 1 mM EDTA, 0.1 mM DTT, 50 ug/ml BSA, 10 ug/ml poly(dI-dC), 12.5% glycerol, cAMP (20 uM in Results, 20 mM in Methods …).
Data set [2] addresses T1, ArgR (Escherichia coli K-12 W3110) (UniProt P0A6D0).
T1 sequence: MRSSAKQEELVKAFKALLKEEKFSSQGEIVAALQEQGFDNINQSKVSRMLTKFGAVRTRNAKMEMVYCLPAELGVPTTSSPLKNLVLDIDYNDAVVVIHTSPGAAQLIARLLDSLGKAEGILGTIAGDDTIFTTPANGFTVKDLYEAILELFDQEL
The data set is described as follows: EMSA. The settings on record: Crp EMSA: 10 mM Tris-HCl pH 8.0, 50 mM KCl, 1 mM EDTA, 0.1 mM DTT, 50 ug/ml BSA, 10 ug/ml poly(dI-dC), 12.5% glycerol, cAMP (20 uM in Results, 20 mM in Methods …). (In general: Mobility shift assays separate free from complexed probe on a gel.)

In the case of PgltB -406 to +246, the Kd in data set [1] came to 35 nM; in data set [2] (5 mM L-arginine, apparent Kd, Hill 2.0) it was 1.8 nM.

In data set [2], “AATTCGGCGATGACCTGGATCAATCGTCCCGGCCTGCTTTTATCAACTGCATAATCAATCAAAATTACCGAAATTTCATGCATAATCACATAAATCACTTTTGCTTATCTTGTGTCAGATTTTTTTATCTCCTGATGGATTTTAGGCAAAAACAGTAGCATGAAACGTCATTACCAATTAAGGCAGTATAAAATGCTGGTTTTGTCGTCAGTTCAAGGCAGGATAAGGGTTAACACACCTTTATGACAGTCAGGAATTGACTGTTTCTCTAACGACTTC (double strand) [PgltB -406 to -128]” showed a Kd of 1.7 nM.

For the origin of these results see PMC1784095.
